This sample holds only a part of the variants without activity.

One data set deals with biotinyl-Phe-oxazolone. As to the kind of experiment: self-aminoacylation, catalytic enhancement (BFO) (fold over background); higher = more active; k-Seq, kA / k0A0; sequences stand for … in GGGAAUGGAUCCACAUCUACGAAUUC…UUCACUGCAGACUUGACGAAGCUG
The gist of the method:
(§1)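 Each biotinyl-aminoacyl-oxazolone, at 2–1250 μM, was incubated with mutagenized RNA pools (0.43 μM) carrying a 21-nt variable region. The 50 μL reactions contained HEPES/NaCl/KCl/MgCl2/CaCl2 buffer with 5% acetonitrile at pH 6.9–7.0 and ran for 90 minutes at room temperature. After streptavidin capture, RNA was measured by qPCR in triplicate and by Illumina sequencing, and catalytic enhancement was calculated as median kA over the uncatalyzed rate from a pseudo-first-order fit of per-sequence fraction reacted.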

A further data set deals with biotinyl-Ile-oxazolone. As to the kind of experiment: self-aminoacylation, catalytic enhancement (BIO) (fold over background); higher = more active; k-Seq, kA / k0A0; sequences stand for … in GGGAAUGGAUCCACAUCUACGAAUUC…UUCACUGCAGACUUGACGAAGCUG
The gist of the method:
as §1

In a further data set the test system is biotinyl-Met-oxazolone. As to the kind of experiment: self-aminoacylation, catalytic enhancement (BMO) (fold over background); higher = more active; k-Seq, kA / k0A0; sequences stand for … in GGGAAUGGAUCCACAUCUACGAAUUC…UUCACUGCAGACUUGACGAAGCUG
A digest of the protocol:
as §1

A further data set has as its system biotinyl-Val-oxazolone. As to the kind of experiment: self-aminoacylation, catalytic enhancement (BVO) (fold over background); higher = more active; k-Seq, kA / k0A0; sequences stand for … in GGGAAUGGAUCCACAUCUACGAAUUC…UUCACUGCAGACUUGACGAAGCUG
The gist of the method:
as §1

The test system of the next data set is biotinyl-Leu-oxazolone. Kind of data set: self-aminoacylation, catalytic enhancement (BLO) (fold over background); higher = more active; k-Seq, kA / k0A0; sequences stand for … in GGGAAUGGAUCCACAUCUACGAAUUC…UUCACUGCAGACUUGACGAAGCUG
A digest of the protocol: as §1

The next data set has as its system biotinyl-Trp-oxazolone. As to the kind of experiment: self-aminoacylation, catalytic enhancement (BWO) (fold over background); higher = more active; k-Seq, kA / k0A0; sequences stand for … in GGGAAUGGAUCCACAUCUACGAAUUC…UUCACUGCAGACUUGACGAAGCUG
The gist of the method: as §1

With “AUUCACCUAGGUCAUCGGUUA [Fam2.2 aminoacylation ribozyme variant]”, the self-aminoacylation with biotinyl-Phe-oxazolone was 1.09; with biotinyl-Ile-oxazolone, 1.11; in the data set with biotinyl-Met-oxazolone it was 1.28; with biotinyl-Val-oxazolone, 1.17; with biotinyl-Leu-oxazolone it was 1.27; in the data set on biotinyl-Trp-oxazolone it was 1.35.

With “AUUCACCAAGGUCAUCGCGUG [Fam2.2 aminoacylation ribozyme variant]”, the self-aminoacylation in the data set on biotinyl-Phe-oxazolone was 132; with biotinyl-Ile-oxazolone, 7.86; in the data set on biotinyl-Met-oxazolone, 16; in the data set on biotinyl-Val-oxazolone it was 8.42; with biotinyl-Leu-oxazolone, 20.7; in the data set on biotinyl-Trp-oxazolone, 12.6.

As for “CUUACCCUGGUCAUCGAGUAA [Fam2.1 aminoacylation ribozyme variant]”, the self-aminoacylation is 8.84 with biotinyl-Phe-oxazolone; 2.03 in the data set with biotinyl-Ile-oxazolone; 4.58 with biotinyl-Met-oxazolone; 2.8 in the data set with biotinyl-Val-oxazolone; 4.25 in the data set with biotinyl-Leu-oxazolone; 3.51 with biotinyl-Trp-oxazolone.

Regarding “AUUCACCUAGGUCCUAGGGUG [Fam2.2 aminoacylation ribozyme variant]”, the self-aminoacylation worked out at 4.72 in the data set with biotinyl-Phe-oxazolone; 2.06 in the data set on biotinyl-Ile-oxazolone; 2.55 in the data set with biotinyl-Met-oxazolone; 1.75 with biotinyl-Val-oxazolone; 4.26 in the data set with biotinyl-Leu-oxazolone; 3.15 in the data set on biotinyl-Trp-oxazolone.

“AUGUCCCUGGUCAUCGAGUGA [Fam2.1 aminoacylation ribozyme variant]”: the self-aminoacylation in the data set with biotinyl-Phe-oxazolone was found to be 246; in the data set with biotinyl-Ile-oxazolone, 15.1; in the data set with biotinyl-Met-oxazolone, 44.2; with biotinyl-Val-oxazolone, 17.2; in the data set with biotinyl-Leu-oxazolone, 40.9; in the data set with biotinyl-Trp-oxazolone it was 41.4.

As to “AAGUCUGCUAAUAGUCGCGAG [Fam3.1 aminoacylation ribozyme variant]”, the self-aminoacylation in the data set on biotinyl-Phe-oxazolone was found to be 5.39; in the data set on biotinyl-Ile-oxazolone, 1.26; with biotinyl-Met-oxazolone, 1.77; with biotinyl-Val-oxazolone, 1.33; in the data set with biotinyl-Leu-oxazolone, 1.36; in the data set on biotinyl-Trp-oxazolone it was 3.06.

As to “AAGUUUGCUAAUACUCGCCAG [Fam3.1 aminoacylation ribozyme variant]”, the self-aminoacylation with biotinyl-Phe-oxazolone amounted to 0.993; in the data set with biotinyl-Ile-oxazolone, 0.916; in the data set on biotinyl-Met-oxazolone, 0.629; with biotinyl-Val-oxazolone it was 0.836; in the data set with biotinyl-Leu-oxazolone, 0.655; with biotinyl-Trp-oxazolone, 0.773.

For the sequence “GUUCACCUAGGUCAUCGGAUG [Fam2.2 aminoacylation ribozyme variant]”, the self-aminoacylation with biotinyl-Phe-oxazolone worked out at 0.879; in the data set with biotinyl-Ile-oxazolone it was 0.815; with biotinyl-Met-oxazolone, 0.701; with biotinyl-Val-oxazolone, 0.979; in the data set on biotinyl-Leu-oxazolone, 0.728; with biotinyl-Trp-oxazolone it was 0.5.

For the sequence “CCAGAUUUCAAGCAAUCGGUC [Fam1B.1 aminoacylation ribozyme variant]”, the self-aminoacylation with biotinyl-Phe-oxazolone was 3.36; in the data set with biotinyl-Ile-oxazolone, 1.5; with biotinyl-Met-oxazolone, 1.48; in the data set on biotinyl-Val-oxazolone, 1.4; with biotinyl-Leu-oxazolone, 1.38; in the data set with biotinyl-Trp-oxazolone it was 2.91.

On to “CUUCUUCACACAAUCGGUCUG [Fam1A.1 aminoacylation ribozyme variant]”, for which the self-aminoacylation with biotinyl-Phe-oxazolone is 0.889; with biotinyl-Ile-oxazolone, 0.714; in the data set on biotinyl-Met-oxazolone, 0.749; in the data set with biotinyl-Val-oxazolone, 0.782; in the data set on biotinyl-Leu-oxazolone it was 0.775; in the data set on biotinyl-Trp-oxazolone it was 0.81.

In the case of “AGUCACCUAGGUCAUGGGGUG [Fam2.2 aminoacylation ribozyme variant]”, the self-aminoacylation stood at 29.2 in the data set with biotinyl-Phe-oxazolone; 3.57 with biotinyl-Ile-oxazolone; 5.58 with biotinyl-Met-oxazolone; 4.11 in the data set on biotinyl-Val-oxazolone; 5.97 in the data set with biotinyl-Leu-oxazolone; 5.76 in the data set with biotinyl-Trp-oxazolone.

Consider “AUUCCCCUAGGUCAUCGGGCG [Fam2.2 aminoacylation ribozyme variant]”, for which the self-aminoacylation stood at 81.8 in the data set on biotinyl-Phe-oxazolone; 9.9 in the data set with biotinyl-Ile-oxazolone; 15.7 with biotinyl-Met-oxazolone; 11.3 in the data set with biotinyl-Val-oxazolone; 13.5 in the data set on biotinyl-Leu-oxazolone; 9.17 in the data set with biotinyl-Trp-oxazolone.

For the sequence “AUUAACCUGGUCAUCGAGCGA [Fam2.1 aminoacylation ribozyme variant]”, the self-aminoacylation with biotinyl-Phe-oxazolone is 1.01; with biotinyl-Ile-oxazolone, 1.79; in the data set with biotinyl-Met-oxazolone it was 1.88; in the data set on biotinyl-Val-oxazolone, 1.5; with biotinyl-Leu-oxazolone, 1.68; with biotinyl-Trp-oxazolone, 1.37.

On to “AUUCAGCUAGGUCAUCGGGCG [Fam2.2 aminoacylation ribozyme variant]”, for which the self-aminoacylation worked out at 17.5 in the data set on biotinyl-Phe-oxazolone; 2.48 in the data set with biotinyl-Ile-oxazolone; 3.2 in the data set on biotinyl-Met-oxazolone; 2.79 in the data set on biotinyl-Val-oxazolone; 3.92 in the data set on biotinyl-Leu-oxazolone; 3.83 with biotinyl-Trp-oxazolone.

“CCACACUCUAAGCAAUCGGUC [Fam1B.1 aminoacylation ribozyme variant]”: the self-aminoacylation is 1.04 with biotinyl-Phe-oxazolone; 0.985 in the data set with biotinyl-Ile-oxazolone; 0.69 in the data set with biotinyl-Met-oxazolone; 1.06 in the data set on biotinyl-Val-oxazolone; 0.683 in the data set on biotinyl-Leu-oxazolone; 0.903 with biotinyl-Trp-oxazolone.

Consider “AUUACCCUGGUCAUCCAAUGA [Fam2.1 aminoacylation ribozyme variant]”, for which the self-aminoacylation in the data set with biotinyl-Phe-oxazolone amounted to 1.66; with biotinyl-Ile-oxazolone, 0.938; with biotinyl-Met-oxazolone, 1.2; with biotinyl-Val-oxazolone, 0.942; in the data set with biotinyl-Leu-oxazolone, 1.47; in the data set with biotinyl-Trp-oxazolone, 0.429.

As to “CUACUUCAAACCAUCGGUCUC [Fam1A.1 aminoacylation ribozyme variant]”, the self-aminoacylation in the data set with biotinyl-Phe-oxazolone amounted to 0.936; in the data set on biotinyl-Ile-oxazolone, 0.708; in the data set with biotinyl-Met-oxazolone it was 0.555; with biotinyl-Val-oxazolone it was 0.72; in the data set on biotinyl-Leu-oxazolone it was 0.496; in the data set on biotinyl-Trp-oxazolone it was 0.731.

As to “AAGCUUGCAAAUAGUCGCAAG [Fam3.1 aminoacylation ribozyme variant]”, the self-aminoacylation stood at 7.03 in the data set on biotinyl-Phe-oxazolone; 2.14 in the data set with biotinyl-Ile-oxazolone; 2.53 in the data set on biotinyl-Met-oxazolone; 2.25 in the data set with biotinyl-Val-oxazolone; 2.07 in the data set on biotinyl-Leu-oxazolone; 2.14 in the data set with biotinyl-Trp-oxazolone.

Regarding “CUACUUCCAACAAUCGGUGUG [Fam1A.1 aminoacylation ribozyme variant]”, the self-aminoacylation with biotinyl-Phe-oxazolone came to 0.789; in the data set with biotinyl-Ile-oxazolone it was 0.97; with biotinyl-Met-oxazolone, 1.06; with biotinyl-Val-oxazolone, 1.03; with biotinyl-Leu-oxazolone, 1.28; in the data set with biotinyl-Trp-oxazolone, 1.09.

Consider “AAGGUUGGUAAUAGUCGCAAG [Fam3.1 aminoacylation ribozyme variant]”, for which the self-aminoacylation came to 2.09 in the data set on biotinyl-Phe-oxazolone; 1.48 in the data set on biotinyl-Ile-oxazolone; 1.59 in the data set on biotinyl-Met-oxazolone; 1.38 in the data set with biotinyl-Val-oxazolone; 1.55 in the data set with biotinyl-Leu-oxazolone; 2.15 with biotinyl-Trp-oxazolone.

As to “AGUUACCUAGGUCAUCGGGUG [Fam2.2 aminoacylation ribozyme variant]”, the self-aminoacylation worked out at 40.1 in the data set with biotinyl-Phe-oxazolone; 4.59 in the data set with biotinyl-Ile-oxazolone; 5.38 with biotinyl-Met-oxazolone; 4.62 with biotinyl-Val-oxazolone; 6.47 with biotinyl-Leu-oxazolone; 6.91 with biotinyl-Trp-oxazolone.
